Substitutions are numbered along the chain they refer to. Each block holds one binder with its values, some of them ahead of it.
Key:
[1] = biological target: T1, B7-H4 fusion protein Variant 5: IgC residues 154-259 of SEQ ID NO:1 (human, UniProt Q7Z7D3 154-259); assay: ELISA, B7-H4 Fc fusion protein immobilized at 1 µg/ml, mouse antibody titrated, anti-mouse Ig HRP
T1 construct: Human IgG1 Fc fusion protein; also called IgC only; not shown: human IgG1 Fc
T1 sequence: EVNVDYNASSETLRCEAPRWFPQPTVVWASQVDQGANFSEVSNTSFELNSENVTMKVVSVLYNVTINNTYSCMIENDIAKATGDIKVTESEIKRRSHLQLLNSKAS
Method: (§1) 100 μl 1 μg/ml human IgG1 Fc fusion proteins diluted in PBS consisting of different segments of B7-H4 Extracellular domains were immobilized on flat bottom 96 well plates (Costar 9017) overnight at 4° C. […] Plates were washed twice with PBS+0.1% PS-20 and blocked with 200 μl/well PBS 10% FBS at RT for 1 hr. A titration of mouse anti-human B7-H4 antibodies 2H9, 2D1, 2E11, 6H3, 8E11 or H74 diluted in PBS 10% FBS were added to the plates and incubated at RT for 1 hr. Plates were washed three times and 100 μl 1 μg/ml anti-mouse Ig HRP (Sigma) was added to each well and incubated at RT for 1 hr. Plates were washed six times and 100 μl TMB substrate (SurModics) was added to each well for 5-15 mins. 100 μl stop solution (0.1M Sulfuric acid) was added to each well. Plates were read at Absorbance 450 nm by PerkinElmer EnVision 2104 Multilabel Reader.

B7-H4-Ig fusion protein [2] = biological target: T2, B7-H4-Ig fusion protein (human); assay: antibody captured on B7-H4-Ig fusion protein, detected with biotin-anti-mouse IgG1 and Europium-Streptavidin
T2 construct: also called human B7-H4 Ig
T2 sequence (chain, as listed by the source limits assumed): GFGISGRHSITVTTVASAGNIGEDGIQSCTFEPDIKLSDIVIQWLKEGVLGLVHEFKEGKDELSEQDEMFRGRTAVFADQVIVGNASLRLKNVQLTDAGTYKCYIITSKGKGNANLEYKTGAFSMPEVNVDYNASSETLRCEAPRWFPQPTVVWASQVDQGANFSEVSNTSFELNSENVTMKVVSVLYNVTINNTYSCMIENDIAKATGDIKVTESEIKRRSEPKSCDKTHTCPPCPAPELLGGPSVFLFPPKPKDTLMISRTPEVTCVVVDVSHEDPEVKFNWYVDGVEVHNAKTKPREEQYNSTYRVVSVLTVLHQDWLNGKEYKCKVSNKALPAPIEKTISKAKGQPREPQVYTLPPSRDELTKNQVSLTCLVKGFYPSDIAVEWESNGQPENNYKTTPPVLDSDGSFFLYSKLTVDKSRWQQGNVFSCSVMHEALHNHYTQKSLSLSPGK
From the text: Serum was collected for initial evaluation of PK (peak and trough post 4th dose). Antibody was captured from serum with a B7-H4-Ig fusion protein, and detected with biotin-anti-mouse IgG1 (6H3.mIgG1) or IgG2a (6H3.mIgG2a) and detected with Europium-Streptavidin.

B7-H4-Ig fusion protein [3] = biological target: T2, B7-H4-Ig fusion protein; assay: ELISA, B7-H4 Ig coated on the plate, purified antibody, HRP goat anti-mouse
Method: B7-H4 Ig was coated onto microtiter plates, washed, blocked, and washed again. Varying concentrations of anti-B7-H4 antibodies were allowed to bind. Purified proteins were used for clones H74, 6H3, and 8E11. Conditioned media from hybridomas 2D1, 2H9, and 2E11 were used. Following incubation, the plates were washed. Bound anti-B7-H4 was detected using HRP-conjugated goat anti-mouse (Jackson ImmunoResearch).

[4] = biological target: T3, B7-H4 fusion protein Variant 1: IgV residues 29-149 of SEQ ID NO:1 (human, UniProt Q7Z7D3 29-149); assay: ELISA, B7-H4 Fc fusion protein immobilized at 1 µg/ml, mouse antibody titrated, anti-mouse Ig HRP
T3 construct: Human IgG1 Fc fusion protein; also called IgV only; not shown: human IgG1 Fc
T3 chain: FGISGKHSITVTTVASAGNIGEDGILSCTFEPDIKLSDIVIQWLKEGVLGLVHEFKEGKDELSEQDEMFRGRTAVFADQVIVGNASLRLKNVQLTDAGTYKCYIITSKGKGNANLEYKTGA
Method: as §1

[5] = biological target: T4, B7-H4 fusion protein Variant 2: IgV residues 29-154 of SEQ ID NO:1 (human, UniProt Q7Z7D3 29-154); assay: as above
T4 construct: Human IgG1 Fc fusion protein; also called IgV only; not shown: human IgG1 Fc
T4 chain: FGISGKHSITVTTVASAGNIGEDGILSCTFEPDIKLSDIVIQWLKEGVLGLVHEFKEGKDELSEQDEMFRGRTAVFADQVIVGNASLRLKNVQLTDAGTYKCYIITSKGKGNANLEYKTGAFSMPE
Method: as §1

[6] = biological target: T5, B7-H4 fusion protein Variant 3: IgV residues 29-158 of SEQ ID NO:1 (human, UniProt Q7Z7D3 29-158); assay: as above
T5 construct: Human IgG1 Fc fusion protein; also called IgV only; not shown: human IgG1 Fc
T5 chain: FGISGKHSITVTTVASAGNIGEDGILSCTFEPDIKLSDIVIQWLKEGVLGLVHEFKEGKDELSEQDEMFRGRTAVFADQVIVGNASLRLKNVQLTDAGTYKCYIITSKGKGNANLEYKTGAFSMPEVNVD
Method: as §1

[7] = biological target: T6, human B7-H4 expressed on cells (human, UniProt Q7Z7D3 25-282); assay: flow cytometry on HEK293 cells expressing full length human B7-H4, labelled secondary antibody, 20 min at 4 C
T6 construct: the cell line is named under assay or readout; also called full length human B7-H4 on HEK293 cells; 293T.hB7-H4
T6 sequence: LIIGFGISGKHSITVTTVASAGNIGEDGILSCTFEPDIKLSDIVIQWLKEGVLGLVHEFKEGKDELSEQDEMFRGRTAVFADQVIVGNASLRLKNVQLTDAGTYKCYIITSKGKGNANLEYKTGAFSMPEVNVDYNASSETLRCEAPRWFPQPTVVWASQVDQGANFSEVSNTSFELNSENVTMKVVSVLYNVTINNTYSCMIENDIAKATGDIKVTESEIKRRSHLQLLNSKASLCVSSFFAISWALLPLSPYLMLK
Method: In order to determine the kinetics of binding of antibody 6H3 binding to B7-H4, with HEK293 cells that expressed full length human B7-H4 were incubated (for 20 minutes at 4° C. with 1×10⁵ in 200 μl wells) in the presence of varying concentrations of antibody (0, 0.01 ng, 0.03 ng, 0.1 ng, 0.3 ng, 1 ng, 10 ng, 30 ng, 100 ng, 300 ng, 1000 ng, 3000 ng, 10000 ng, or 30000 ng) in RPMI complete media (10% FBS). Binding was analyzed (FACS Canto II) using a FACS staining plate after incubation with a secondary antibody (anti-human Ig PE, anti-mouse Ig APC, anti-hamster Ig PE or anti-rat Ig PE).

- EC50 (read off the curve) (B7-H4-Ig fusion protein [3]): ~10 ng/mL
- binding result [4]: no binding (tested: 16 ng/ml)
- binding result [5]: no binding (tested: 16 ng/ml)
- binding result [6]: no binding (tested: 16 ng/ml)
- EC50 (read off the curve) [7]: ~6 nM
B3: murine anti-human B7-H4 antibody 6H3 (antibody, V domains shown)
VH: EVQLQQSGPVLVKPGTSVKMSCKASGYTFTDYYMNWVKQSHGKSLEWIGVINPYNGDTTYNQKFKGKATLTVDKSSSTAYMEVNSLTFEDSAVYYCARYPESTYWGQGTLVTVSA
VL: DVVMTQTPLSLPVSLGDQASISCRSSQSLVHINGNTYLHWYLQKPGQSPKVLIYKVSNRFSGVPDRFSGSGSGTDFTLKISRVEAEDLGVYFCSQSTHVPLTFGAGTKLELK
notes: Mouse monoclonal antibody; also called clone 6H3; mouse anti-human B7-H4 6H3

- binding result [4]: binds
- binding result [5]: binds
- binding result [6]: binds
B4: anti-human B7-H4 antibody 2H9 (antibody, V domains shown)
VH: EVQLVESGGNLVKPGGSLKLSCAASGFTFSNSAMSWVRQTPEKRLEWVATISDGGRYTYYPDNVKGRFTISRDNAKNNLYLQMSHLKSEDTALYYCARDRPHWYFDVWGTGATVTVSS
VL: DIVLTQSPASLAVSLGQRATISCRASESIDNYGISFMHWYQQKPGQPPKLLIYRASNLESGIPARFSGSGSRTDFTLTINPVETDDVATYFCQQSDEGRTFGGGTKLEIK
notes: Mouse anti-human B7-H4 antibody; also called clone 2H9

Second part, the binder before the results:

B1: anti-human B7-H4 antibody 2D1 (antibody, V domains shown)
VH: EVQLVESGGGLVKPGGSLKLSCAASGFTFNSHGMSWVRQTPEKRLDWVATISDGGTYTYYPVNVKGRFTISRDNAKNNLYLQMSHLKSEDTAMYYCARDGGGGAYWGQGTLVTVSA
VL: B3 VL with Q27H, I32S, K50N, V51L, K55I, L101P
notes: Mouse anti-human B7-H4 antibody; also called clone 2D1
- binding result [1]: binds

B2: mouse 6H3.m1 (mouse IgG1) (antibody, V domains shown)
VH: B3 VH
VL: B3 VL
notes: 6H3 as mouse IgG1; also called 6H3.mIgG1
- EC50 (read off the curve) (B7-H4-Ig fusion protein [2]): ~10 ng/mL

— patent publication US20150315275A1 (AstraZeneca / MedImmune, published 2015)
